Where a chain is given by its changes, count along the chain named.
T1: zcyto20 (IL-28A), human (human) (UniProt Q8IZJ0)
T1 sequence: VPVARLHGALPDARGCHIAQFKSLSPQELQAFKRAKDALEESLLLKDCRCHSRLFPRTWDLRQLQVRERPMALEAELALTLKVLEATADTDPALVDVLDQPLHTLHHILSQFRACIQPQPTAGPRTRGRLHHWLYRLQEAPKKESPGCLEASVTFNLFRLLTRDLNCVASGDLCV

T2: zcyto24 (mouse IL-28) (mouse) (UniProt Q4VK74)
T2 sequence: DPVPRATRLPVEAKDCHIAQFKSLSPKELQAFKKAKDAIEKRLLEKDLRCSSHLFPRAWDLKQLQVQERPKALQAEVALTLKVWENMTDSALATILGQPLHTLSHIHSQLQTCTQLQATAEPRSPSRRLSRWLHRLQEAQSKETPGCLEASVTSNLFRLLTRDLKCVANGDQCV

B1: IL-28B (SEQ ID NO: 6) (ligand)
chain: T1 sequence with H7R, R49K, H51R, M71V, V95G, F112L, Y135H
B2: human zcytor19-Fc/human CRF2-4-Fc heterodimer (Fc fusion, from a related filing, not shown: a dimerising Fc or GST)
chain 1: RPRLAPPQNVTLLSQNFSVYLTWLPGLGNPQDVTYFVAYQSSPTRRRWREVEECAGTKELLCSMMCLKKQDLYNKFKGRVRTVSPSSKSPWVESEYLDYLFEVEPAPPVLVLTQTEEILSANATYQLPPCMPPLDLKYEVAFWKEGAGNKTLFPVTPHGQPVQITLQPAASEHHCLSARTIYTFSVPKYSKFSKPTCFLLEVPEANWA
chain 2: MVPPPENVRMNSVNFKNILQWESPAFAKGNLTFTAQYLSYRIFQDKCMNTTLTECDFSSLSKYGDHTLRVRAEFADEHSDWVNITFCPVDDTIIGPPGMQVEVLADSLHMRFLAPKIENEYETWTMKNVYNSWTYNVQYWKNGTDEKFQITPQYDFEVLRNLEPWTTYCVQVRGFLPDRNKAGEWSEPVCEQTTHDETVPS
modifications: left off: a dimerising Fc or GST
B3: human CRF2-4-Fc homodimer (Fc fusion, from a related filing)
chain: B2 chain 2
modifications: left off: a dimerising Fc or GST
B4: human zcytor19-Fc homodimer (Fc fusion, not shown: a dimerising Fc or GST)
chain: B2 chain 1
B5: murine zcytor19-Ig homodimer (Fc fusion, mouse, UniProt Q8CGK5 21-227, looked up, not shown: a dimerising Fc or GST)
chain: RPRLAPPRNVTLFSQNFTVYLTWLPGLGSPPNVTYFVTYQSYIKTGWRPVEHCAGIKALVCPLMCLKKLNLYSKFKGRVQAASAHGRSPRVESRYLEYLFDVELAPPTLVLTQMEKILRVNATYQLPPCMPSLELKYQVEFWKEGLGSKTLFPDTPYGQPVQIPLQQGASRRHCLSARTVYTLIDIKYSQFSEPSCIFLEAPGDKRA

Biological target: human IL-28 receptor on transfected 293 HEK cells (IL-28 receptor alpha subunit with endogenous CRF2-4) (human)
Sequence (Q8IU57 whole entry, chain 1 of 2): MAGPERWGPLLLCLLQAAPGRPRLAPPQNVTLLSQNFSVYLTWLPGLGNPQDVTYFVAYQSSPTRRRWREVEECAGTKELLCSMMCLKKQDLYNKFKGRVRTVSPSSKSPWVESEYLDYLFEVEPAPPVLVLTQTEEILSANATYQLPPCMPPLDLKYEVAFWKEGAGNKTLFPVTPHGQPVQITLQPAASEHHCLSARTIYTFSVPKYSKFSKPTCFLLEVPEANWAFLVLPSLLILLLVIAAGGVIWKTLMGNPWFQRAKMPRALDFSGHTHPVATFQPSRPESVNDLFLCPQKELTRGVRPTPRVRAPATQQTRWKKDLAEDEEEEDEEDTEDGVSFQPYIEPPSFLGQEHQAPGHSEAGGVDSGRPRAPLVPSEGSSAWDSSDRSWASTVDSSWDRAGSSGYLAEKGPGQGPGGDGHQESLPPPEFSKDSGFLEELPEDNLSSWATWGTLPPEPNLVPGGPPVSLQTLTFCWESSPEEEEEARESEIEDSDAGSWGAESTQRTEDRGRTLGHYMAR
Sequence (Q08334 whole entry, chain 2 of 2, further chain): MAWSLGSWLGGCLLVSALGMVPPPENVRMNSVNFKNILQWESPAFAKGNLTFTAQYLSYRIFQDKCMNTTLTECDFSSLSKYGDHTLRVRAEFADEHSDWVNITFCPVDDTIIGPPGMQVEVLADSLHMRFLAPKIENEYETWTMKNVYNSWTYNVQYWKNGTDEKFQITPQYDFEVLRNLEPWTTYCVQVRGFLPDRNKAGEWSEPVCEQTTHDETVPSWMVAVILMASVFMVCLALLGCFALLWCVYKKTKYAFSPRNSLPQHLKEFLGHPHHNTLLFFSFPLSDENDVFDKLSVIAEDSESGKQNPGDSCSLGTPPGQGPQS
Assay: cell-based or functional assay

ISRE Signaling of Transfected 293 Cells Following Class II Cytokine Stimulation (Fold Induction), ISRE-Luc./IL-28R, IL-28B 125 ng/ml (fold induction)	Binder
104	B1

Biological target: T1, zcyto20 (IL-28A), human (human)
Assay: cell-based or functional assay

Percent Inhibition of Ligand-induced Interferon Stimulated Response Element (ISRE) Signaling by Soluble Receptors (10 ng/ml ligand, 10 micrograms/ml soluble receptor)	Binder
16%	B2
80%	B3
92%	B4
91%	B5

Biological target: zcyto21 (SEQ ID NO:15) (human) (UniProt Q8IU54)
Sequence (Q8IU54 other isoform, or with tags, fused parts or gaps): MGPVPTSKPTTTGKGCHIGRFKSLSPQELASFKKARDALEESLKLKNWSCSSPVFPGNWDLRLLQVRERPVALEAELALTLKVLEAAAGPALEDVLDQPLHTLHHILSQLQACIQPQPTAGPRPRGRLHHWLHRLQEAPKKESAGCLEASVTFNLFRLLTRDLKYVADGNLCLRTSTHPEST
Assay: cell-based or functional assay

Percent Inhibition of Ligand-induced Interferon Stimulated Response Element (ISRE) Signaling by Soluble Receptors (10 ng/ml ligand, 10 micrograms/ml soluble receptor)	Binder
16%	B2
79%	B3
45%	B4
103%	B5

Biological target: T2, zcyto24 (mouse IL-28) (mouse)
Assay: cell-based or functional assay

Percent Inhibition of Ligand-induced Interferon Stimulated Response Element (ISRE) Signaling by Soluble Receptors (10 ng/ml ligand, 10 micrograms/ml soluble receptor)	Binder
47%	B2
82%	B3
90%	B4
89%	B5
